Laboratory results as given in patent US20070224196A1 (ELUSYS THERAPEUTICS, published 2007).
Positions count from the first letter of the chain named.

B1: E DI VH4/VL2 (antibody, V domains shown)
VH: DVQLQESGPGLVKPSQTLSLTCTVSGYSITSDYAWNWIRQFPGKGLEWIGYISYSGSTSYHPSLKSRISISRDTSKNQFFLQMNSVTTEDTATYYCTTIINYDKYDWYFDVWGQGTTVTVSS
VL: DIVLTQSPASLVVSVRQRATISCRASQSVRTSSYSYIHWYQQKPGQPPKLLIKYASSLESGVPARFSGSGSGTDFTLNISPVEEEDTATYYCQHSWEIPWTFGPGTTVEIK
notes: also called E DI V4/VL2
B2: E DI VH2/VL1 44H1 (antibody, V domains shown)
VH: B1 VH with I29M, L64V, S69T
VL: B1 VL with K53Y, T107K
notes: also called immunogenicity-reduced Ab VH2/VL1
B3: E DI VH1/VL2 (antibody, V domains shown)
VH: B1 VH with I29M, S59T, L64V, S69T, Y94T, V111Y
VL: B1 VL
B4: E DI VH3/VL2 15A12 (antibody, V domains shown)
VH: B1 VH with I29M
VL: B1 VL
notes: also called immunogenicity-reduced Ab VH3/VL2
B5: E DI VH5/VL1 (antibody, V domains shown)
VH: B1 VH with S25T, I49M
VL: B1 VL with K53Y, T107K
notes: also called immunogenicity-reduced Ab VH5/VL1
B6: E DI VH3/VL1 12H10 (antibody, V domains shown)
VH: B1 VH with I29M
VL: B1 VL with K53Y, T107K
notes: also called immunogenicity-reduced Ab VH3/VL1

Assays:
[1] = target: T1, human erythrocyte complement receptor 1 (CR1) (human, UniProt P17927 42-2039); assay: erythrocyte binding assay (FIGS. 10-13)
T1 construct: whole, on cells; also called C3b receptor; CD35

[2] = target: T1, human erythrocyte complement receptor 1 …; assay: erythrocyte binding assay, antibody with RBCs in solution, A405 read-out

T1 sequence (P17927 42-2039): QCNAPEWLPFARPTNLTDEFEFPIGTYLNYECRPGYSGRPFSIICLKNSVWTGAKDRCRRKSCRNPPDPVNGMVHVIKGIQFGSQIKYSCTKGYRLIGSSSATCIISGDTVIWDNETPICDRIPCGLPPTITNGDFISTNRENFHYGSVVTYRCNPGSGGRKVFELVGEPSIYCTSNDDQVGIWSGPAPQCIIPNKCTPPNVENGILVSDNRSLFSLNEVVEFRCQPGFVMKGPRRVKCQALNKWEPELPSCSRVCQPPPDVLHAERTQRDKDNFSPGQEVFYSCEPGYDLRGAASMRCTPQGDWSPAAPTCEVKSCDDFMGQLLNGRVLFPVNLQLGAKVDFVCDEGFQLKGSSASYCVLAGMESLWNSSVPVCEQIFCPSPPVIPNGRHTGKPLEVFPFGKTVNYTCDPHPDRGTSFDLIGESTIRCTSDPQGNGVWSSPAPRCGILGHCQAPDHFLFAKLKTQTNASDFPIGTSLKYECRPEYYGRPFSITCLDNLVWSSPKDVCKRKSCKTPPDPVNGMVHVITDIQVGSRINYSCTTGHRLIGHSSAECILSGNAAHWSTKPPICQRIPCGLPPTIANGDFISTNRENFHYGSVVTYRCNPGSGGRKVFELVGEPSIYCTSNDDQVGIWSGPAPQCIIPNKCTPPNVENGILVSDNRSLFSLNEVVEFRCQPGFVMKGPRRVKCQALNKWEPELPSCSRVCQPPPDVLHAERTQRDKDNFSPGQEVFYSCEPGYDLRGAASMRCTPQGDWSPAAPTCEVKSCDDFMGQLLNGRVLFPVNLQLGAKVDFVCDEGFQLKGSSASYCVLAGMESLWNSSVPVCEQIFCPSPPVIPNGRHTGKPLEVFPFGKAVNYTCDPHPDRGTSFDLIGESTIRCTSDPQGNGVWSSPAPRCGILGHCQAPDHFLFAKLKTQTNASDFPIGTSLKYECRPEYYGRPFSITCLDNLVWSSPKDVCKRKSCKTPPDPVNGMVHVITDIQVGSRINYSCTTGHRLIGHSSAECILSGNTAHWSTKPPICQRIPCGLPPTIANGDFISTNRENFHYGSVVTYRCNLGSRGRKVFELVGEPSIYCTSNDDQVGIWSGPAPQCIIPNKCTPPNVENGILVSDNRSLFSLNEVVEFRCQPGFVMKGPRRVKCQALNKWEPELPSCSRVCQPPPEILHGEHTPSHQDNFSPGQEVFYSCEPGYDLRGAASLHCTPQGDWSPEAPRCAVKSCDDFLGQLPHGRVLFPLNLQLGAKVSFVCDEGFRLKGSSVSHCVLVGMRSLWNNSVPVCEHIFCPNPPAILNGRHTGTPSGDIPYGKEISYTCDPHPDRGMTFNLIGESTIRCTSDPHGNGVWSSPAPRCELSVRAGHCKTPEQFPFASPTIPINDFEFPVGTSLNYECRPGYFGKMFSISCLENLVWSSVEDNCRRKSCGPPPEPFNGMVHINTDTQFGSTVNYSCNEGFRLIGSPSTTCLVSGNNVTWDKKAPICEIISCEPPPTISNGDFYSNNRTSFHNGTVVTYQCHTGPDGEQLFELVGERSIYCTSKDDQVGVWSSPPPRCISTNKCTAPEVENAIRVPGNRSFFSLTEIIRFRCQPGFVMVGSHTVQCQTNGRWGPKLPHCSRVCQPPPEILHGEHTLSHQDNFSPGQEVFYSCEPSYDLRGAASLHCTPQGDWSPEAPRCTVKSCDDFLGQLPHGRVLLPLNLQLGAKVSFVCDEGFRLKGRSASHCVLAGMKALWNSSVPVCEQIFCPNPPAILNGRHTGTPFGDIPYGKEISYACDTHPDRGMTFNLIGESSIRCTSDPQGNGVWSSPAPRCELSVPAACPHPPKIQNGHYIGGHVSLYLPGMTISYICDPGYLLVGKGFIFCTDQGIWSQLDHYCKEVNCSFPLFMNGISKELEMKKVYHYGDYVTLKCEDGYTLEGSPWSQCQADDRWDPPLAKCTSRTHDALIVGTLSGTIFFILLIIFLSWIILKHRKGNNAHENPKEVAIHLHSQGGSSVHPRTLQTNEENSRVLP

Binder	fold reduction of binding compared to the chimeric antibody [1] [fold]	ng of antibody at A405 0.4 [2] [ng]
B1	~10	30
B2	~2	12
B3	~10	9
B4	~10	
B5		2
B6		4
